Columns and labels:
[1] = target: Leishmania major tubulin-binding cofactor A (Leishmania major Friedlin); assay: SEC; calibrated Superdex 75 26/60 column, 50 mM Tris-HCl, 250 mM NaCl pH 7.5, no reducing agent
[2] = target: Leishmania major tubulin-binding cofactor A (Leishmania major Friedlin); assay: MALDI-TOF mass spectrometry; sample that was used for crystallization (the approx. 27 kDa gel-filtration peak)

Leishmania major tubulin-binding cofactor A (natural protein)
stoichiometry N [1]: 2
stoichiometry N [2]: 2
